Test results published in the DeepSol protein solubility set.

assay: soluble on expression in E. coli; label from the status in PepcDB or PDB records

Row | Sequence | soluble on expression in E. coli
1 | MAHHHHHHMGCVNCKKAKRRKDHPTLEEAAARETERERWAAAEQGFAAQNLYTSVHAANSLPLTEREGATPLPATPGRLENVPQISAAAAAPGETENGRGWNSKKKSNSQATGKADNDSTAAALARVTRTAAPSESSRETPKGRRNKHQYRCHPGVSSWSDGSLPLSVDSVGSAKCPHSSSSSSSSSAQTYKSKKGAEDAKKHGSPGSITAAEIWPQENSDDSVAQGHLNSASHSQTATAWLHINGLTAAGTTSSTNARQTRQPKMYHRSSNVSSDSRSNATPPGMETKVYPSADALDDGPSDWGSTSHDVPAAIPAPNTSVESGGAAAEASSLPNRAPFEPYSDLGSRDVTDYLPPYEWAPRTLPVPSPLRACGPVDMAQWEDGENQFCGLAAAGTTARFQDPVVNVSAEGATTSNSAVAEGNYGASHPFALHTFYPRLPPAQWSSSSSDDTINGPEASAAAFDYPHLPVNAFIQKAHPHQQQPTYRAMYEGDASVRYSPAGYASHEATPRRAVPPSLVDVHVSEAVGYASPPLVNNAHSFYPSRALLPMHHSHAVPDSGSGKPMAYSHALPAMTTSAPQIYHDGNRNRSGNISIVSIGGGVHPHKPVSYLFDSSMDDWLQSRHAQPPQRQLYGESVDMW | soluble
2 | MSERHGVQEATLRNWANLGYITSCRMGNQLFLDDESLTAYLEAHKRLGLQADYLAKIVEEKKLERDFIISRYDDLLYVLRTQKTCKPLYEIIIRELSQLIVHPGARDIFYSISMGESIEKVAGRHRITYDRALQIYNSHLRGLKVRKNVLATYRKHIIDARFQSLADKSKNINLNQEERVLQLSVGKVADTRLTNVLYKEEIRTVGQLLELVSGKGWRWLLKMEGVGRISYDRLLSNLQLAGVVDESLEQILSGRSDR | not soluble
3 | MWESKFVKEGLTFDDVLLVPAKSDVLPREVSVKTVLSESLQLNIPLISAGMDTVTEADMAIAMARQGGLGIIHKNMSIEQQAEQVDKVKRSESGVISDPFFLTPEHQVYDAEHLMGKYRISGVPVVNNLDERKLVGIITNRDMRFIQDYSIKISDVMTKEQLITAPVGTTLSEAEKILQKYKIEKLPLVDNNGVLQGLITIKDIEKVIEFPNSAKDKQGRLLVGAAVGVTADAMTRIDALVKASVDAIVLDTAHGHSQGVIDKVKEVRAKYPSLNIIAGNVATAEATKALIEAGANVVKVGIGPGSICTTRVVAGVGVPQLTAVYDCATEARKHGIPVIADGGIKYSGDMVKALAAGAHVVMLGSMFAGVAESPGETEIYQGRQFKVYRGMGSVGAMEKGSKDRYFQEGNKKLVPEGIEGRVPYKGPLADTVHQLVGGLRAGMGYCGAQDLEFLRENAQFIRMSGAGLLESHPHHVQITKEAPNYSL | not soluble
4 | MGSDKIHHHHHHLLGDDPFLVINGDVFIDTLPVMPELKSINPDNGCLAHLWLVENPSQHPNGDFGFVSQEGVTTAELSQGPLSADLKLNFTFSGIGLYHPQLFDDIPEGPVPLGPLLREKMALGQVQGQLHRSFWCDVGTLERLAQLETRLELAARR | not soluble
5 | MAHHHHHHMGRNNKMRSKPSDNVAWYDKGPVEWLPRPVRLTYDQLDQLRDWMMRETIAGRTEEFNKIRHLHREWSQHPLMPVLGDVEPKFPLNLYKQNHRAKRRFLVRWHKANSPTYWMWMPRGPAVATPLHRSSPSQFPEHWKSLARTSSSSSSSGSSSAAP | soluble
6 | LRASEIMNRTLDLQIIMDDLLNLLLKEFKLDLAVIRLVDEKGVLRVRSYSGKGIAGIAGKDWEPEIETYIGEAFLSNRLQFVNDTQYMTKPLTRELMQKEGIKSFAHIPISRKGEPPFGILSVFSRTIVGLFNEPFLNLLESLAGQLAQAVKIVTEMEAKEREREEKERILLENA | soluble
7 | MSLVVFLLLKSQFLYGEDFKLRKGTLIIEEGIIKGFTDEHNEREVIEFKGLVIPSLINAHTHIADNSIKDIGINKTLDELVKPPNGLKHRYLTECSDDLLAEGMKLGLGDMREHGIKYFCDFRENGVRGISLLNKALKCYDYPKAIILGRPIKVDKDEIEEVLKVSNGLGLSGANEFKDDELKLIFKIFKKFKEKDDKKLFAIHAAEHRGAVEYSLNKYGMTEVERLIDLKIKPDFIVHGTHLTDNDLELLKENNIPVVACVRANLSFNVGMPKLNELNDNLLVGIGTDNFMANSPSIFKEMDFIYKLYHIEPKDILRMATINNAKILKLENVGLVDEGFKAVFTFIKPTNAILFSKNIIASVVTRCEKGDVVDFSLMENEEEGHHHHHH | soluble
